In publication PMC4203341 (Developmental cell, 2014):

Target: T1, Trim58 PS domain (purified, for SEC-MALLS) (mouse, UniProt Q5NCC9 1-485)
T1 sequence (looked up): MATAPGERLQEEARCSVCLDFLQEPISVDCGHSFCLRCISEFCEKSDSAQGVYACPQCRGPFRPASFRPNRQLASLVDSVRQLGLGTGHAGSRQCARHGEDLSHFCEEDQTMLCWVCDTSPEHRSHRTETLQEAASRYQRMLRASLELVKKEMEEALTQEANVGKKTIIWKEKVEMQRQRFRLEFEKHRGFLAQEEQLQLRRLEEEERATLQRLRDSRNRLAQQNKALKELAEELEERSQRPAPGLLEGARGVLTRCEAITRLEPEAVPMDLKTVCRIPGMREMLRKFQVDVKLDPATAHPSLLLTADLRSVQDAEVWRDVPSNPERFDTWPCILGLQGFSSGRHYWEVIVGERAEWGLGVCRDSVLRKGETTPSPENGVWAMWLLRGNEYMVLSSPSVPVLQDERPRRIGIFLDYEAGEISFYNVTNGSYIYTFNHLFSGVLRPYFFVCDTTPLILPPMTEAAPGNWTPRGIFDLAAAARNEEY
Experiment: SEC-MALS

B1: GST-DIC (1–120) (domain or fragment)
chain: MSDKSDLKAELERKKQRLAQIREEKKRKEEERKKKETDQKKEAAVSVQEESDLEKKRREAEALLQSMGLTTDSPIVPPPMSPSSKSVSTPSEAGSQDSGDGAVGSRRGPIKLGMAKITQV
  stoichiometry N: 1
